Results reported in the supplement of paper PMC9112550, “Optimization of the antimicrobial peptide Bac7 by deep mutational scanning” (BMC Biology, 2022).

Test system: Escherichia coli TOP10
Assay: shrunken log2 fold change of peptide-encoding DNA abundance (4.5 h post-induction vs induction); higher = less antimicrobial activity (less host growth inhibition)
Details: time post-induction: 4.5 h; library: site-saturation at positions 5, 18, 19, 20
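Also: peptides expressed intracellularly from a pBAD plasmid library in pooled LB shake-flask culture, induced with 0.3% L-arabinose, DNA abundance read by NGS, three biological replicates, DESeq2 with apeglm shrinkage.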

Sequence	shrunken log2 fold change
RRIRQRPPRLPRPRPRPFKQPRP	-0.24
RRIRQRPPRLPRPRPRPFLSPRP	0.024
RRIRQRPPRLPRPRPRPFMTPRP	-0.00963
RRIRQRPPRLPRPRPRPFQKPRP	-0.173
RRIRQRPPRLPRPRPRPFSCPRP	-0.00804
RRIRQRPPRLPRPRPRPFTDPRP	0.0299
RRIRQRPPRLPRPRPRPFTMPRP	-0.141
RRIRQRPPRLPRPRPRPFTYPRP	-0.0211
RRIRQRPPRLPRPRPRPGAEPRP	0.39
RRIRQRPPRLPRPRPRPGAGPRP	0.451
RRIRQRPPRLPRPRPRPGAHPRP	0.179
RRIRQRPPRLPRPRPRPGAIPRP	0.0781
RRIRQRPPRLPRPRPRPGAPPRP	0.307
RRIRQRPPRLPRPRPRPGCIPRP	-0.306
RRIRQRPPRLPRPRPRPGEFPRP	0.313
RRIRQRPPRLPRPRPRPGFDPRP	2.69
RRIRQRPPRLPRPRPRPGKGPRP	0.00842
RRIRQRPPRLPRPRPRPGLKPRP	0.0245
RRIRQRPPRLPRPRPRPGPRPRP	0.565
RRIRQRPPRLPRPRPRPGRPPRP	0.121
RRIRQRPPRLPRPRPRPGRRPRP	0.388
RRIRQRPPRLPRPRPRPGRTPRP	-0.433
RRIRQRPPRLPRPRPRPGSRPRP	0.166
RRIRQRPPRLPRPRPRPGSTPRP	-0.146
RRIRQRPPRLPRPRPRPGTCPRP	-0.266

Sequence	shrunken log2 fold change
RRIRQRPPRLPRPRPRPGTKPRP	0.0136
RRIRQRPPRLPRPRPRPGTYPRP	0.00894
RRIRQRPPRLPRPRPRPGVLPRP	0.0476
RRIRQRPPRLPRPRPRPGWDPRP	0.135
RRIRQRPPRLPRPRPRPGWEPRP	-0.00991
RRIRQRPPRLPRPRPRPGYAPRP	0.0993
RRIRQRPPRLPRPRPRPGYCPRP	-0.0255
RRIRQRPPRLPRPRPRPGYIPRP	-0.625
RRIRQRPPRLPRPRPRPGYYPRP	-0.476
RRIRQRPPRLPRPRPRPHAMPRP	-0.0121
RRIRQRPPRLPRPRPRPHARPRP	-0.00608
RRIRQRPPRLPRPRPRPHATPRP	-0.0615
RRIRQRPPRLPRPRPRPHENPRP	-0.0313
RRIRQRPPRLPRPRPRPHERPRP	0.158
RRIRQRPPRLPRPRPRPHEVPRP	-0.0426
RRIRQRPPRLPRPRPRPHGCPRP	0.0414
RRIRQRPPRLPRPRPRPHGGPRP	-0.0841
RRIRQRPPRLPRPRPRPHHGPRP	-0.042
RRIRQRPPRLPRPRPRPHIHPRP	-0.476
RRIRQRPPRLPRPRPRPHINPRP	-0.921
RRIRQRPPRLPRPRPRPHKLPRP	-0.544
RRIRQRPPRLPRPRPRPHKQPRP	-0.608
RRIRQRPPRLPRPRPRPHKSPRP	-0.0741
RRIRQRPPRLPRPRPRPHLLPRP	0.006
RRIRQRPPRLPRPRPRPHMNPRP	-0.76

Sequence	shrunken log2 fold change
RRIRQRPPRLPRPRPRPHPVPRP	0.0674
RRIRQRPPRLPRPRPRPHQQPRP	-0.101
RRIRQRPPRLPRPRPRPHSHPRP	0.0496
RRIRQRPPRLPRPRPRPHTWPRP	-0.206
RRIRQRPPRLPRPRPRPHWNPRP	-0.703
RRIRQRPPRLPRPRPRPHYGPRP	0.0133
RRIRQRPPRLPRPRPRPIASPRP	-0.0483
RRIRQRPPRLPRPRPRPIENPRP	0.219
RRIRQRPPRLPRPRPRPIHFPRP	-0.236
RRIRQRPPRLPRPRPRPILFPRP	0.0255
RRIRQRPPRLPRPRPRPILIPRP	-0.521
RRIRQRPPRLPRPRPRPIMSPRP	0.0933
RRIRQRPPRLPRPRPRPINIPRP	-0.21
RRIRQRPPRLPRPRPRPINKPRP	-0.318
RRIRQRPPRLPRPRPRPIPCPRP	-0.244
RRIRQRPPRLPRPRPRPIPKPRP	-0.0574
RRIRQRPPRLPRPRPRPIQSPRP	0.0147
RRIRQRPPRLPRPRPRPIRQPRP	0.0167
RRIRQRPPRLPRPRPRPISCPRP	-0.00146
RRIRQRPPRLPRPRPRPITTPRP	-0.0809
RRIRQRPPRLPRPRPRPIVNPRP	-0.0197
RRIRQRPPRLPRPRPRPIVTPRP	-0.364
RRIRQRPPRLPRPRPRPIVYPRP	-0.311
RRIRQRPPRLPRPRPRPIWAPRP	-0.0792
RRIRQRPPRLPRPRPRPIYEPRP	-0.0255

Sequence	shrunken log2 fold change
RRIRQRPPRLPRPRPRPKCRPRP	-0.0264
RRIRQRPPRLPRPRPRPKELPRP	-0.534
RRIRQRPPRLPRPRPRPKFCPRP	-0.0186
RRIRQRPPRLPRPRPRPKFNPRP	-0.271
RRIRQRPPRLPRPRPRPKFSPRP	-0.914
RRIRQRPPRLPRPRPRPKHNPRP	-0.368
RRIRQRPPRLPRPRPRPKIHPRP	-0.558
RRIRQRPPRLPRPRPRPKILPRP	-0.0155
RRIRQRPPRLPRPRPRPKIWPRP	0.362
RRIRQRPPRLPRPRPRPKKAPRP	-0.15
RRIRQRPPRLPRPRPRPKKKPRP	-0.0791
RRIRQRPPRLPRPRPRPKLAPRP	-0.0518
RRIRQRPPRLPRPRPRPKMEPRP	-0.0177
RRIRQRPPRLPRPRPRPKMSPRP	-0.101
RRIRQRPPRLPRPRPRPKNDPRP	-0.379
RRIRQRPPRLPRPRPRPKNHPRP	-0.23
RRIRQRPPRLPRPRPRPKPAPRP	0.357
RRIRQRPPRLPRPRPRPKPKPRP	0.278
RRIRQRPPRLPRPRPRPKPMPRP	0.382
RRIRQRPPRLPRPRPRPKPNPRP	0.301
RRIRQRPPRLPRPRPRPKQHPRP	-0.239
RRIRQRPPRLPRPRPRPKQNPRP	-0.0189
RRIRQRPPRLPRPRPRPKSKPRP	-0.123
RRIRQRPPRLPRPRPRPKSNPRP	-0.29
RRIRQRPPRLPRPRPRPKSYPRP	-0.0861

Sequence	shrunken log2 fold change
RRIRQRPPRLPRPRPRPKTFPRP	-0.259
RRIRQRPPRLPRPRPRPKWFPRP	-0.107
RRIRQRPPRLPRPRPRPKWPPRP	0.166
RRIRQRPPRLPRPRPRPKYDPRP	-0.165
RRIRQRPPRLPRPRPRPKYFPRP	0.0276
RRIRQRPPRLPRPRPRPKYHPRP	-0.171
RRIRQRPPRLPRPRPRPLAHPRP	-0.0319
RRIRQRPPRLPRPRPRPLDVPRP	-0.0496
RRIRQRPPRLPRPRPRPLDYPRP	0.13
RRIRQRPPRLPRPRPRPLFCPRP	0.213
RRIRQRPPRLPRPRPRPLFFPRP	-0.00141
RRIRQRPPRLPRPRPRPLFGPRP	0.107
RRIRQRPPRLPRPRPRPLFRPRP	-0.227
RRIRQRPPRLPRPRPRPLFWPRP	-0.23
RRIRQRPPRLPRPRPRPLHCPRP	-0.183
RRIRQRPPRLPRPRPRPLHHPRP	-0.73
RRIRQRPPRLPRPRPRPLHIPRP	-0.423
RRIRQRPPRLPRPRPRPLHMPRP	-0.384
RRIRQRPPRLPRPRPRPLHQPRP	-0.172
RRIRQRPPRLPRPRPRPLHVPRP	-0.324
RRIRQRPPRLPRPRPRPLIFPRP	-0.432
RRIRQRPPRLPRPRPRPLIGPRP	-0.285
RRIRQRPPRLPRPRPRPLQCPRP	-0.357
RRIRQRPPRLPRPRPRPLQHPRP	0.164
RRIRQRPPRLPRPRPRPLQTPRP	-0.339

Sequence	shrunken log2 fold change
RRIRQRPPRLPRPRPRPLQYPRP	-0.0199
RRIRQRPPRLPRPRPRPLRQPRP	0.0855
RRIRQRPPRLPRPRPRPLSAPRP	0.0436
RRIRQRPPRLPRPRPRPLSPPRP	-0.109
RRIRQRPPRLPRPRPRPLTWPRP	-0.21
RRIRQRPPRLPRPRPRPLTYPRP	-0.13
RRIRQRPPRLPRPRPRPLVAPRP	0.034
RRIRQRPPRLPRPRPRPLVLPRP	0.00943
RRIRQRPPRLPRPRPRPLVWPRP	0.152
RRIRQRPPRLPRPRPRPLYCPRP	-0.672
RRIRQRPPRLPRPRPRPLYGPRP	0.0686
RRIRQRPPRLPRPRPRPLYNPRP	-0.796
RRIRQRPPRLPRPRPRPMACPRP	-0.159
RRIRQRPPRLPRPRPRPMDEPRP	0.0268
RRIRQRPPRLPRPRPRPMGPPRP	-0.0254
RRIRQRPPRLPRPRPRPMGTPRP	-0.00257
RRIRQRPPRLPRPRPRPMGVPRP	-0.00411
RRIRQRPPRLPRPRPRPMISPRP	-0.0269
RRIRQRPPRLPRPRPRPMITPRP	-0.166
RRIRQRPPRLPRPRPRPMKNPRP	-0.124
RRIRQRPPRLPRPRPRPMKWPRP	0.273
RRIRQRPPRLPRPRPRPMLGPRP	0.0371
RRIRQRPPRLPRPRPRPMNYPRP	-0.182
RRIRQRPPRLPRPRPRPMPRPRP	0.0657
RRIRQRPPRLPRPRPRPMQRPRP	0.416
